The results in this text go back to US20240158497A1 (published 2024).

T1: human GP130 extracellular domain expressed with a C-terminal mouse IgG2a Fc tag (hGP130-mFc) (human)
T1 construct: also called dimeric human GP130
T1 chain: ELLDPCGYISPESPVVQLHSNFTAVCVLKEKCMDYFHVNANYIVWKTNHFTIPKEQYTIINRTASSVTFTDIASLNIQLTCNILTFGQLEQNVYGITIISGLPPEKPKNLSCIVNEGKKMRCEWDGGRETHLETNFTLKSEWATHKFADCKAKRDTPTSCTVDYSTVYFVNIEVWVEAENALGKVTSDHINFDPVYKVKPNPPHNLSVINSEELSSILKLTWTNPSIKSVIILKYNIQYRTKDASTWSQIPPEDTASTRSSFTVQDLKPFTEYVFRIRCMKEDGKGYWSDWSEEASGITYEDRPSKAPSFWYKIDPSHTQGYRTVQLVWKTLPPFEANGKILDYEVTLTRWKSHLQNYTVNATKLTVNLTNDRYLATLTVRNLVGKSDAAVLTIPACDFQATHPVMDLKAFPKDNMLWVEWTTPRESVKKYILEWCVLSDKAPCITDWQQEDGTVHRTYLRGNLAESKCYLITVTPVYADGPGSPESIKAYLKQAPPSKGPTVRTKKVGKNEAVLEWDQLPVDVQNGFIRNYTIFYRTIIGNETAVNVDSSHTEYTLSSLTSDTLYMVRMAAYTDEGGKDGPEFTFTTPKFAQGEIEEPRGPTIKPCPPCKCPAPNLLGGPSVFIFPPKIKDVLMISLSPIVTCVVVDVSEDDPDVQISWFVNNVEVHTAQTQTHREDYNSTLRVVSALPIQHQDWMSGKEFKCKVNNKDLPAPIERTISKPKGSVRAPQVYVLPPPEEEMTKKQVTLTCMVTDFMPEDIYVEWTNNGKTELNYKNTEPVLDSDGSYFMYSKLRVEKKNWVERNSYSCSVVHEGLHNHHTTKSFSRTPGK

B1: MAb16656 (antibody, V domains shown)
VH: EVQLVESGGGLVQPGRSLRLSCAASGFTLDDFAMHWVRQAPGKGLEWVSGISWNSGNIGYADSVKGRFTISRDNARNSLYLQMNSLRAEDTALYYCTSGYYLYYAMDVWGQGTTVTVSS
VL: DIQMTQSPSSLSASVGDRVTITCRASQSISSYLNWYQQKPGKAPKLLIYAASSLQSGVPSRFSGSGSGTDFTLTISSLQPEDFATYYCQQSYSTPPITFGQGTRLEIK
notes: captured through anti-human Fc
B2: MAb16622 (antibody, V domains shown)
VH: EVQLVESGGGVVRPGGSLRLSCTASGFTFDDYGMSWVRQAPGKGLEWVSGINWNGGRTEYADAVKGRFIISRDNAKNSLYLQMNSLRAEDTALYFCARTELRWDYWGQGTLVTVSS
VL: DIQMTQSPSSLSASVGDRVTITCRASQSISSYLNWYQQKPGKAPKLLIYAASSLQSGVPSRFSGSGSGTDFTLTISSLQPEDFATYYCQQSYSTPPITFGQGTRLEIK
notes: as for B1
B3: MAb16636 (antibody, V domains shown)
VH: QLQLQESGPGLVKPSETLSLICTVSGGSISSNNYYWGWIRQPPGKGLEWIGNLYGSGSTYYNPSLKSRVTISVDTSKNQFSLKLSFVTAADTAVYHCARWDTNGGAFDIWGQGTMVTVSS
VL: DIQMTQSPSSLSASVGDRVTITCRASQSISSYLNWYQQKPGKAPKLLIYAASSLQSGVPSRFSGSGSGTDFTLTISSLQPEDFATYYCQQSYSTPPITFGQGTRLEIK
notes: as for B1
B4: MAb16623 (antibody, V domains shown)
VH: EVQLVESGGGLVQPGGSLRLSCAASGLTFSSYEMNWVRQAPGKGLEWVSHISSAGSTKYYADSVKGRFTISRDNAKNSLFLQMNSLRAEDTAIYYCAGYNYAYYYFGVDVWGQGTTVTVSS
VL: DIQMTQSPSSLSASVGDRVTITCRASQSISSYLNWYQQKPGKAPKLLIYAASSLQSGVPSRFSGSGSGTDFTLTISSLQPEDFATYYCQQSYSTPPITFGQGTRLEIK
notes: as for B1
B5: MAb16618 (antibody, V domains shown)
VH: QVQLQESGPGLVKPSETLSLTCTVSGGSISNYYWTWIRQPPGKGLEWIGHISNSGTTNYNPSLKSRVTISVDTSKNQFSLKLTSVTAADTAVYYCARLPLGIAAVDTDYYYYFGMDVWGQGTTVTVSS
VL: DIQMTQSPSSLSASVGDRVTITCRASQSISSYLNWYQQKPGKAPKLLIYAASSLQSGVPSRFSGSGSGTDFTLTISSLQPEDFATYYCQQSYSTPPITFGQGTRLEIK
notes: as for B1
B6: MAb16614 (antibody, V domains shown)
VH: QVQLVESGGGVVQPGGSLRLSCAASGFTFSTYDIHWVRQAPGKGLEWVAVISFDGSNRNYGDSVKGRFTISRDNSDNTLFLEMNNLRFEDTAVYYCAKEGYGVDFQHWGQGTLVTVSS
VL: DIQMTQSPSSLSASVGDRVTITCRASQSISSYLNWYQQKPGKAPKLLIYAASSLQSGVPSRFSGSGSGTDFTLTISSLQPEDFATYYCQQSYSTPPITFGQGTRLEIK
notes: as for B1
B7: MAb16637 (antibody, V domains shown)
VH: QVQLVQSGAEVKKPGASVKVSCKASGYTFTSLGISWVRQAPGQGLEWMGWISAYSGNRDYAQKFQGRVTMTTDTSTSTAYMELRSLRSDDTAVYYCARSLRFDYWGQGTLVTVSS
VL: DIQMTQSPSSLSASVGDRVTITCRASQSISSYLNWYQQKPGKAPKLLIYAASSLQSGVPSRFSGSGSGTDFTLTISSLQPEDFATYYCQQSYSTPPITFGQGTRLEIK
notes: as for B1

One test concerns the target T1, human GP130 extracellular domain …. The test is described as follows: SPR Biacore, mAb captured via anti-hFc, 25 C. As to the method:
(§1) Equilibrium dissociation constant (KD) for different GP130 reagents binding to purified anti-GP130 monoclonal antibodies were determined using a real-time surface plasmon resonance based Biacore 4000 biosensor. All binding studies were performed in 10 mM HEPES, 150 mM NaCl, 3 mM EDTA, and 0.05% v/v Surfactant Tween-20, pH 7.4 (HBS-ET) running buffer at 25° C. and 37° C. The Biacore sensor surface was first derivatized by amine coupling with a monoclonal mouse anti-human Fc antibody (GE, #BR-1008-39) to capture anti-GP130 monoclonal antibodies. […] Reagents tagged with “mmH” are monomeric, whereas reagents tagged with “mFc” are dimeric. Thus, for example, “hGP130-mmH” is also referred to as “monomeric human GP130,” and “hGP130-mFc” is also referred to as “dimeric human GP130.”
(§2) The association rate (k a) and dissociation rate (kd) were determined by fitting the real-time binding sensorgrams to a 1:1 binding model with mass transport limitation using Scrubber 2.0c curve-fitting software. Binding dissociation equilibrium constant (KD) and dissociative half-life (t ½) were calculated from the kinetic rates as: […]
On the technique in general: In SPR one partner is held on a chip, and binding of the other changes the refractive index at the surface.
As for B1, the “100 nM Ag Bound (RU)” value is 98 RU, binding was characterised by a dissociation constant (Kd) of 1.68 nM, the koff amounted to 0.000132 s⁻¹ and the kon was 78100 M⁻¹ s⁻¹. The t½ was 88 min.
In the same order, the values of B2 are 164 RU, 0.615 nM, 0.000306 s⁻¹, 497000 M⁻¹ s⁻¹ and 38 min.
As to B3, the “100 nM Ag Bound (RU)” value came out at 91 RU; the affinity, expressed as Kd, was 1.92 nM; the koff came to 0.000113 s⁻¹; the kon was 58800 M⁻¹ s⁻¹. The same molecule showed a t½ of 102 min.
The matching figures for B4: 184 RU, 0.468 nM, 0.000208 s⁻¹, 444000 M⁻¹ s⁻¹ and 56 min.
The matching figures for B5: 202 RU, 0.236 nM, 0.000279 s⁻¹, 1.19e+06 M⁻¹ s⁻¹ and 41 min.
As to B6, the “100 nM Ag Bound (RU)” value is 83 RU, the Kd was determined as 4.47 nM, the koff amounted to 0.000383 s⁻¹ and the kon was found to be 85700 M⁻¹ s⁻¹. Further, the t½ was found to be 30 min.
In the same order, the values of B7 are 189 RU, 0.647 nM, 0.00015 s⁻¹, 232000 M⁻¹ s⁻¹ and 77 min.

Another test deals with T2, mouse GP130 extracellular domain expressed with a C-terminal myc-myc-hexahistidine tag (mGP130-mmH) (mouse, UniProt Q00560 23-617).
T2 construct: Monomeric; the entry includes the myc-myc-His tag
Description: SPR Biacore, mAb captured via anti-hFc, 25 C. As to the method:
as §1, §2
Consider B1, for which the “100 nM Ag Bound (RU)” value was 0 RU.
As for B2, the “100 nM Ag Bound (RU)” value amounted to 1 RU and the binding result is recorded as “no binding (tested: 100 nM)”.
The matching figures for B3: 0 RU and “no binding (tested: 100 nM)”.
Turning to B4, the “100 nM Ag Bound (RU)” value worked out at 0 RU and the binding result is recorded as “no binding (tested: 100 nM)”.
On to B5, for which the “100 nM Ag Bound (RU)” value is 1 RU and the binding result is on record as “no binding (tested: 100 nM)”.
The matching figures for B6: 1 RU and “no binding (tested: 100 nM)”.
Consider B7, for which the “100 nM Ag Bound (RU)” value came to 1 RU.

The next test deals with T3, rat GP130 extracellular domain expressed with a C-terminal myc-myc-hexahistidine tag (rGP130-mmH) (rat, UniProt P40190 23-618).
T3 construct: Monomeric; the entry includes the myc-myc-His tag
Description: SPR Biacore, mAb captured via anti-hFc, 25 C. The method, then: as §1, §2
Take B1: the “100 nM Ag Bound (RU)” value was -1 RU.
Consider B2, for which the “100 nM Ag Bound (RU)” value was 0 RU and the binding result is recorded as “no binding (tested: 100 nM)”.
The matching figures for B3: 1 RU and “no binding (tested: 100 nM)”.
B4: the “100 nM Ag Bound (RU)” value amounted to 0 RU and the binding result is recorded as “no binding (tested: 100 nM)”.
In the same order, the values of B5 are 6 RU and “no binding (tested: 100 nM)”.
The matching figures for B6: 0 RU and “no binding (tested: 100 nM)”.
Turning to B7, the “100 nM Ag Bound (RU)” value came to 0 RU and the binding result was “no binding (tested: 100 nM)”.

In the next test the target is T1, human GP130 extracellular domain …. Description: SPR Biacore, mAb captured via anti-hFc, 37 C. The method, then: as §1, §2
As for B1, the “100 nM Ag Bound (RU)” value was 123 RU, binding was characterised by a dissociation constant (Kd) of 1.7 nM, the koff was found to be 0.000297 s⁻¹ and the kon came out at 175000 M⁻¹ s⁻¹. For the same molecule, the t½ is 39 min.
Take B2: the “100 nM Ag Bound (RU)” value worked out at 201 RU, the Kd amounted to 1.29 nM, the koff worked out at 0.000825 s⁻¹ and the kon amounted to 639000 M⁻¹ s⁻¹. The molecule also returned a t½ of 14 min.
The matching figures for B3: 136 RU, 1.2 nM, 0.000167 s⁻¹, 139000 M⁻¹ s⁻¹ and 69 min.
The matching figures for B4: 224 RU, 0.56 nM, 0.000325 s⁻¹, 580000 M⁻¹ s⁻¹ and 36 min.
The matching figures for B5: 236 RU, 0.674 nM, 0.000934 s⁻¹, 1.39e+06 M⁻¹ s⁻¹ and 12 min.
As for B6, the “100 nM Ag Bound (RU)” value is 85 RU, the dissociation constant (Kd) worked out at 9.56 nM, the koff was 0.00172 s⁻¹ and the kon is 180000 M⁻¹ s⁻¹. The molecule further showed a t½ of 7 min.
The matching figures for B7: 246 RU, 0.65 nM, 0.000323 s⁻¹, 496000 M⁻¹ s⁻¹ and 36 min.

The target of the next test is T2, mouse GP130 extracellular domain …. The test is described as follows: SPR Biacore, mAb captured via anti-hFc, 37 C. As to the method:
as §1, §2
In the case of B1, the “100 nM Ag Bound (RU)” value amounted to 0 RU and the binding result is “no binding (tested: 100 nM)”.
On to B2, for which the “100 nM Ag Bound (RU)” value is 1 RU.
In the case of B3, the “100 nM Ag Bound (RU)” value is 0 RU.
On the same count and under the same terms, the same measure for B4: 0 RU; for B5: 0 RU; for B6: 0 RU.
The same measure, in the same setting: the same measure for B7: -1 RU.

A further test has as its target T3, rat GP130 extracellular domain …. Description: SPR Biacore, mAb captured via anti-hFc, 37 C. The method, then:
as §1, §2
Take B1: the “100 nM Ag Bound (RU)” value was found to be 0 RU.
Still for that read-out and setting: the same measure for B2: 1 RU; for B3: 0 RU; for B4: 0 RU.
Still for that read-out and setting: the same measure for B5: 2 RU; for B6: 0 RU.
On to B7, for which the “100 nM Ag Bound (RU)” value came to 0 RU.

A word on the Kd: it is a measure of binding affinity in units of concentration. High values mean a looser complex, low ones a tighter complex. By koff is commonly meant the rate constant with which the complex falls apart. The kon is the second-order rate constant of association. A high value points to faster complex formation. As usually defined, the t½ is the time in which the quantity being followed falls by half. A low value points to rapid decline.
